Laboratory results taken from US6518063, “Osf2/Cbfa1 nucleic acids and methods of use therefor” (Board of Regents, The University of Texas System).

Legend:
Osf2/Cbfa1 [1] = target: T1, Osf2/Cbfa1 (Mus musculus, UniProt Q08775 SEQ:1-528); assay: cell_activity; p910-Opn-luc promoter fragment, F9 cells; deletion of element abolished; conditions: tags: pCMV5 expression
[2] = target: delta.runt.PST + Cbfb heterodimer (UniProt Q08775;Q08024 Q08775:188-607,Q08024:1-187); assay: EMSA; supershifted heterodimer complex; conditions: tags: 6xHis (pTrcHis); chain copies: 2 (1:1 heterodimer, inferred); label: 32P
Description: FIG. 18A. The QA domain prevents heterodimerization of Osf2 with Cbfβ. EMSA done with labeled double-stranded OSE2 oligonucleotide, and equivalent amounts of the Histidine-tagged wild-type and mutant proteins, in the presence or absence of Cbfβ. The nonspecific band (NS) is indicated by an arrow. Arrowheads indicate the supershifted complexes seen in lanes 4 and 10.
(§1) 5.6.1.3 Generation of Recombinant Fusion Proteins, DNA-binding Assays, and In Vitro Binding Assays For protein production, bacterial cells were induced with 2 mM IPTG, and the fusion proteins were enriched using Ni-NTA agarose resin (Qiagen Chatsworth, Calif.) as per the manufacturer's guidelines. DNA-binding assays were performed with 5 fmol of ^32P-labeled double-stranded OSE2 oligonucleotides, in a buffer containing 20 mM Tris-HCl, pH 8.0, 10 mM NaCl, 3 mM EGTA, 0.05% NP-40, 5 mM DTT, and 2 μg of poly (dI.dC).poly (dI.dC), with equivalent amounts of wild type or mutant proteins. […] The proteins were checked for purity and quantified before use. ^35S-labeled Osf2 and Cbfa2 were synthesized in rabbit reticulocyte lysate using coupled in vitro transcription and translation (TNT kit, Promega). Typically, 100 ng of fusion protein bound to glutathione-agarose beads was used for each assay, while the amount of labeled protein in the assay was determined using fluorography. […]

OSF2/CBFA1a = OSF2/CBFA1a (Homo sapiens, UniProt Q13950 SEQ:1-521); assay: cell_activity; p6OSE2-luc, F9 cells; conditions: tags: pCMV expression
Description: FIG. 8B. F9 mouse teratocarcinoma cells were transiently transfected with 5 μg of the reporter plasmid in presence of 5 μg of the indicated expression vector. Values are expressed relative to the basal activity of p6OSE2-luc which was set at 1. Data represent results from 3 independent transfection studies.
The mouse F9 teratocarcinoma cell line was used for the DNA transfection studies. The cells were plated on 10-cm dishes at a density of 5×10^5 cells/dish. Cells were transfected by the calcium phosphate coprecipitation method (Chen and Okayama, 1987), using 5 μg of reporter plasmid, 5 μg of expression plasmid and 2 μg of pRSV/βGal as previously described (Geoffroy et al., 1995). The p6OSE2-luc plasmid containing six copies of the wild-type OSE2 oligonucleotide in front of the −34/+13 mOG2 promoter-luciferase (luc) was used as reporter plasmid (Ducy and Karsenty, 1995). The pCMV-hOSF2/CBFA1a and pCMV-hOSF2/CBFA1b were used as expression plasmids. They contain respectively the full length hOSF2/CBFA1a cDNA and the hOSF2/CBFA1b cDNA lacking exon 8 in correct orientation downstream from the CMV promoter. Luciferase and β-galactosidase activities were assayed as previously described (Geoffroy et at, 1995). […]

[3] = target: His-Cbfa2 + His-Cbfb heterodimer (UniProt Q03347;Q08024 Q03347:1-451,Q08024:1-187); assay: EMSA; slower heterodimer complex; conditions: tags: 6xHis on each (pTrcHis); chain copies: 2 (1:1 heterodimer, inferred); label: 32P
Description: as §1
(§2) Since Cbfβ is also expressed in osteoblasts, the inventors tested if Cbfβ was also a partner for Osf2 using an electrophoretic mobility shift assay (EMSA). […] In contrast, when using His-Cbfa2 protein as a positive control, the inventors always detected heterodimerization with Cbfβ, resulting in a protein-DNA complex of slower mobility (FIG. 18A, compare lanes 3 and 4). […]

Osf2/Cbfa1 [4] = target: T1, Osf2/Cbfa1; assay: cell_activity; p6OSE2-luc (6 copies), F9 cells; conditions: tags: pCMV5 expression
Description: After transfection the cells were washed twice with PBS (150 mM NaCl, 10 mM sodium phosphate [pH 7.2]), and regular medium was added for 24 h. Cells were harvested and lysed by three cycles of freeze-thawing. β-galactosidase activities present in each lysate, measured by a colorimetric enzyme assay (Ausubel et al., 1997) using resorufin β-D-galactopyranoside (Boehringer Mannheim) as a substrate, were used to normalize the transfection efficiency between different studies. DNA cotransfections (Ausubel et al., 1997) were performed in duplicates and repeated at least four times with quantitatively and qualitatively similar results. Luciferase activities were assayed using a Monolight 2010 luminometer (Analytical Luminescence Laboratory, San Diego, Calif.) and D-luciferin substrate (Analytical Luminescence Laboratory) in 100 mM Tris-HCl [pH 7.8], 5 mM ATP, 15 mM MgSO_4, 1 mM dithiothreitol (DTT). For overexpression studies, expression plasmids were transfected for 4 h with Lipofectamin (GIBCO) following the manufacturer's instructions. RNA were harvested 40 h after transfection. […]
The transcriptional activity of Osf2/Cbfa1 was assessed by DNA cotransfection studies. […]

His-Cbfa2 = His-Cbfa2 (Mus musculus, UniProt Q03347 SEQ:1-451); assay: EMSA; conditions: tags: 6xHis (pTrcHis); label: 32P
Description: as §1, §2

T1 sequence (Q08775 80-607): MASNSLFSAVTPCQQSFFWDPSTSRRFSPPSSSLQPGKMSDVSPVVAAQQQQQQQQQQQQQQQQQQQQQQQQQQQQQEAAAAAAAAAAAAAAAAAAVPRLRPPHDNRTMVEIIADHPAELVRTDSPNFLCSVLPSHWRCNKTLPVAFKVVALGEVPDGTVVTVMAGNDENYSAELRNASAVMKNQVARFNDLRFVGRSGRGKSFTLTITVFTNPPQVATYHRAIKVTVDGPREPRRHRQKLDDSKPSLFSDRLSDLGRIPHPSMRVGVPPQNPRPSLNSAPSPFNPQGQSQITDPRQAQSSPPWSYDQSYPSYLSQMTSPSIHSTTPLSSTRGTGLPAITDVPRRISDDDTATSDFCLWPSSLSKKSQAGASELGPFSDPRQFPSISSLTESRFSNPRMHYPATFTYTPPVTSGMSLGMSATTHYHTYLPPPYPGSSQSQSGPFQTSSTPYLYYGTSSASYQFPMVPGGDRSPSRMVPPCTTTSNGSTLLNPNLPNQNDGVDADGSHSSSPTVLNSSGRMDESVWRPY
Chain of OSF2/CBFA1a (Q13950 whole entry P266H/R267G): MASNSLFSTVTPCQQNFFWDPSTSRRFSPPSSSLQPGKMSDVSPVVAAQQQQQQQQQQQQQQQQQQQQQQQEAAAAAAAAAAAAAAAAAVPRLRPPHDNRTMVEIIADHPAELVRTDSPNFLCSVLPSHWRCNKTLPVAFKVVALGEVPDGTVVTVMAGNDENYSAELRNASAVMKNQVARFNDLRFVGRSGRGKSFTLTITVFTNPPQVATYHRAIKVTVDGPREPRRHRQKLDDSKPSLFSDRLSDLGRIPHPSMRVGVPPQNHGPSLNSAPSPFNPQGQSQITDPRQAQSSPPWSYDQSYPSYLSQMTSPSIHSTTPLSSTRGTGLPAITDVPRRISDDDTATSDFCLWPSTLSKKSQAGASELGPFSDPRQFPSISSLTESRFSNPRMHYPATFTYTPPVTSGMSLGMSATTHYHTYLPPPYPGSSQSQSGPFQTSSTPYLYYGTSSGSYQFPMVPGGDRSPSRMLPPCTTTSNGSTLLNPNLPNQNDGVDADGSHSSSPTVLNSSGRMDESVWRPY
Chain of His-Cbfa2 + His-Cbfb heterodimer (Q03347 whole entry, chain 1 of 2): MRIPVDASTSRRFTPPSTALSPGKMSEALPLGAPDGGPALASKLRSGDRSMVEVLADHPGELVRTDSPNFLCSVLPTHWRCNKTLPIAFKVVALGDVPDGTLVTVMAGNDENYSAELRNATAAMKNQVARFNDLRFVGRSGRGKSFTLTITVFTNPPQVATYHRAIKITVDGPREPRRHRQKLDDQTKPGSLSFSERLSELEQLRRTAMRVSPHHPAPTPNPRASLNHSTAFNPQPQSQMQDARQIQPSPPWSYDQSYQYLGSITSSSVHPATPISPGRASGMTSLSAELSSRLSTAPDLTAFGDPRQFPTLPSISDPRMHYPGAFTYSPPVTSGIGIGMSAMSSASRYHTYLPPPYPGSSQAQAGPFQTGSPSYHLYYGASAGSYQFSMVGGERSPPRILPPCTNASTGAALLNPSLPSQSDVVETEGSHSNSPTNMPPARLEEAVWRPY
Chain of His-Cbfa2 + His-Cbfb heterodimer (Q08024 whole entry, chain 2 of 2): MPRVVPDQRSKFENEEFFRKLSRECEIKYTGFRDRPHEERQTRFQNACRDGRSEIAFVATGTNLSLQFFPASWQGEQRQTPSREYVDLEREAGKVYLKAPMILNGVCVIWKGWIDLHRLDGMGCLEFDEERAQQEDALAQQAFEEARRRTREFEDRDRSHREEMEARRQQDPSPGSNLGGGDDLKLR
Chain of His-Cbfa2 (Q03347 whole entry): as the sequence (Q03347 whole entry, chain 1 of 2) above
Chain of delta.runt.PST + Cbfb heterodimer (Q08775 188-607, stated change not applied, chain 1 of 2): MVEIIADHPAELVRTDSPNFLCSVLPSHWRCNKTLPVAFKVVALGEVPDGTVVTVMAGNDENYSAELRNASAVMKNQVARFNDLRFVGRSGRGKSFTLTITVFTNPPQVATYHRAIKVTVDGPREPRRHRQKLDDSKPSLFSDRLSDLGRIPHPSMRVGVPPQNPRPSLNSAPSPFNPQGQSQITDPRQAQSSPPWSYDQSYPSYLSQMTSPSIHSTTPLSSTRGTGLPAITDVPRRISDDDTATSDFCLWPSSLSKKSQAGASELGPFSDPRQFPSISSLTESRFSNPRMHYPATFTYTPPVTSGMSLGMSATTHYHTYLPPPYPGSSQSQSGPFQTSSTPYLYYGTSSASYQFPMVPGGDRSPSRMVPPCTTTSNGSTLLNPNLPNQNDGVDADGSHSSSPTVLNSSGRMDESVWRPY
Chain of delta.runt.PST + Cbfb heterodimer (Q08024 whole entry, stated change not applied, chain 2 of 2, the tested form may be a part): as the sequence (Q08024 whole entry, chain 2 of 2) above

Row | Binder | activity (Osf2/Cbfa1 [1]) [fold activation] | binding result [2] | activity (OSF2/CBFA1a) [fold activation] | binding result [3] | activity (Osf2/Cbfa1 [4]) [fold activation] | binding result (His-Cbfa2)
1 | Osteopontin OSE2 (dsDNA) DNA 1: CGCTCTTTGTGCAAACCACACAG DNA 2: CTGTGTGGTTTGCACAAAGAGCG | 4 |  |  |  |  | 
2 | Osteocalcin (OG2) OSE2 (dsDNA) DNA 1: AGCTGCAATCACCAACCACAGCA DNA 2: TGCTGTGGTTGGTGATTGCAGCT |  | binds | 75 | binds | > 70 | binds
